# Reference: patent publication US20240368275A1 (ELPIS BIOPHARMACEUTICALS, published 2024)
# Where a chain is given by its changes, count along the chain named. Names and notes keep the numbering of the source.
# T1: human Nectin4-HIS tagged recombinant protein (human, UniProt Q96NY8 32-349)
# T1 construct: also called hNectin4-HIS; Nectin4 HIS tagged protein; not shown: HIS tag
# T1 sequence (looked up): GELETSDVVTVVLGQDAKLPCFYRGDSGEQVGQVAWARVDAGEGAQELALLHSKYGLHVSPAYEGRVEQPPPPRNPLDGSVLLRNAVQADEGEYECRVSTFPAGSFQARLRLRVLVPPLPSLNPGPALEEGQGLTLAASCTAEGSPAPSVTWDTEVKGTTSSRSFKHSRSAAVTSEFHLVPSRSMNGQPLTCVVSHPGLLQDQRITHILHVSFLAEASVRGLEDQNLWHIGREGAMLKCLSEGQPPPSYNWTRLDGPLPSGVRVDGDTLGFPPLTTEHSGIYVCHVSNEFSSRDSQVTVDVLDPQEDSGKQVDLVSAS
# T2: full-length human Nectin4 with C-terminal flag and Myc tags on CHO cells (human, UniProt Q96NY8 32-510)
# T2 construct: whole, on cells; also called Nectin4/CHO; CHO/Nectin4; not shown: C-terminal flag and Myc tags of pCMV6-Entry vector
# T2 sequence (looked up): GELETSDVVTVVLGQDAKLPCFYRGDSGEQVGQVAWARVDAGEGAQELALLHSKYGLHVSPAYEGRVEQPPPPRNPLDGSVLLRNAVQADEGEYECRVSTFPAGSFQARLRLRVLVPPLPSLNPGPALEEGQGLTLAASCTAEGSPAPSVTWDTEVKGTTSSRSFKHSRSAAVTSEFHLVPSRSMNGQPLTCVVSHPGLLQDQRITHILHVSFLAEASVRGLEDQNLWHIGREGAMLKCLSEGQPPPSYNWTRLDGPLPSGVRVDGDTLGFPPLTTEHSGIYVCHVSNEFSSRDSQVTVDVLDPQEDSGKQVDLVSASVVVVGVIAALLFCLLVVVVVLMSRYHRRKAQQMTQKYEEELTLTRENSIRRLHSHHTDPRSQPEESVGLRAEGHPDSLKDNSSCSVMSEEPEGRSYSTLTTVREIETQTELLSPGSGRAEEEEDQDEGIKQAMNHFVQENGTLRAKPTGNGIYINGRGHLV
# B1: 2020EP47-F02 IgG (EP544/EP545) (antibody, V domains shown)
# VH: QVQLQQWGAGLLKPSETLSLTCAVYGGSFSGYYWSWIRQPPGKGLEWIGEINHSGSTNYNPSLKSRVTISVDTSKNQFSLKLSSVTAADTAVYYCARGWYLGFDYWGQGTLVTVSS
# VL: QSVLTQPRSVSGSPGQSVTISCTGTSRDVGGYDYVSWYQQYPGKAPKLMISGVSERPSGVPDRFTGSRSANTASLTISGLQTDDEANYYCCSYAGSFTWVFGDGTKLTVLG
# notes: Human IgG1 with lambda light chain; entries without signal peptide used
# B2: EP369/371/289 anti-Nectin4/CD3/IL2 protein complex (bispecific antibody)
# chain: not shown
# heavy: not shown
# light: QAVVTQPPSVSVAPGKTATITCGGNNIGSKGVHWYQQKPGQAPVLVIYYDTDRPSGIPERLSGSNSGNTATLTISRVEAGDEADYYCQVWDSSSDHPVFGGGTKLTVLGQPKANPTVTLFPPSSEELQANKATLVCLISDFYPGAVTVAWKADGSPVKAGVETTKPSKQSNNKYAASSYLSLTPEQWKSHRSYSCQVTHEGSTVEKTVAPTECS
# notes: Anti-CD3 sp34 scFv-Fc knob (EP369), B09 heavy chain hole with wild-type IL2 at the C-terminus (EP371), light chain EP289; also called EP369/EP371/EP289
# B3: EP499/EP378/EP289 anti-Nectin4/CD3 bispecific antibody (bispecific antibody)
# heavy 1: EVQLVQSGAEVKKPGASVKVSCKASGYTFTGYYMHWVRQAPGQGLEWMGRINPNSGGTNYAQKFQGRVTMTRDTSISTAYMELSGLRSDDTAVYFCARVTYNIGWYIDYWGQGTLVTVSSASTKGPSVFPLAPSSKSTSGGTAALGCLVKDYFPEPVTVSWNSGALTSGVHTFPAVLQSSGLYSLSSVVTVPSSSLGTQTYICNVNHKPSNTKVDKKVEPKSCDGGGGSGGGGSEVQLVESGGGLVQPGGSLRLSCAASGFTFNTYAMNWVRQAPGKGLEWVARIRSKYNNYATYYAASVKGRFTISRDDSKNSLFLQMNSLKTEDTAVYYCVRHGNFGNSYVSWFAYWGQGTLVTVSSGGGGSGGGGSGGGGSGGGGSQTVVTQEPSLTVSPGGTVTLTCRSSTGAVTTSNYANWVQEKPDHLFTGLIGGTNKRAPGVPARFSGSLLGGKAALTLSGVQPEDEAIYFCALWYSNLWVFGSGTKVTVLEPKSCDKTHTCPPCPAPEAAGGPSVFLFPPKPKDTLMISRTPEVTCVVVDVSHEDPEVKFNWYVDGVEVHNAKTKPREEQYNSTYRVVSVLTVLHQDWLNGKEYKCKVSNKALGAPIEKTISKAKGQPREPQVCTLPPSRDELTKNQVSLSCAVKGFYPSDIAVEWESNGQPENNYKTTPPVLDSDGSFKLVSKLTVDKSRWQQGNVFSCSVMHEALHNHYTQKSLSLSPGK
# heavy 2: not shown
# light: B2 light
# notes: Bivalent for Nectin4; EP499 carries a humanized SP34 scFv between CH1 and hinge, hole; also called EP499/378/289
# B4: EP500/EP378/EP289 anti-Nectin4/CD3 bispecific antibody (bispecific antibody)
# heavy 1: B3 heavy 1 with T381A, R402A, I466E, F468Y, S481G, V485L
# heavy 2: not shown
# light: B2 light
# notes: Bivalent for Nectin4; EP500 carries a humanized SP34 scFv between CH1 and hinge, hole; template of EP695, EP696 and EP697; also called EP500/378/289
# B5: EP369/379/289 anti-Nectin4/CD3/IL2 protein complex (bispecific antibody)
# chain: not shown
# heavy: EVQLVQSGAEVKKPGASVKVSCKASGYTFTGYYMHWVRQAPGQGLEWMGRINPNSGGTNYAQKFQGRVTMTRDTSISTAYMELSGLRSDDTAVYFCARVTYNIGWYIDYWGQGTLVTVSSASTKGPSVFPLAPSSKSTSGGTAALGCLVKDYFPEPVTVSWNSGALTSGVHTFPAVLQSSGLYSLSSVVTVPSSSLGTQTYICNVNHKPSNTKVDKKVEPKSCDKTHTCPPCPAPEAAGGPSVFLFPPKPKDTLMISRTPEVTCVVVDVSHEDPEVKFNWYVDGVEVHNAKTKPREEQYNSTYRVVSVLTVLHQDWLNGKEYKCKVSNKALGAPIEKTISKAKGQPREPQVCTLPPSRDELTKNQVSLSCAVKGFYPSDIAVEWESNGQPENNYKTTPPVLDSDGSFKLVSKLTVDKSRWQQGNVFSCSVMHEALHNHYTQKSLSLSPGKGGGGSGGGGSGGGGSGGGGSAPASSSTKKTQLQLEHLLLDLQMILNGINNYKNPLLTDMLTRKFYMPKKATELKHLQCLEEELKPLEEVLNLAQSKNFHLRPRDLISNINVIVLELKGSETTFMCEYADETATIVEFLNRWITFSQSIISTLT
# light: B2 light
# notes: Anti-CD3 sp34 scFv-Fc knob (EP369), B09 heavy chain hole with K35L R38D F42R IL2 at the C-terminus (EP379), light chain EP289; also called EP369/EP379/EP289
# Legend:
# [1] = biological target: T1, human Nectin4-HIS tagged recombinant …; experiment: ELISA, coated human Nectin4-HIS, IgG titrated, anti-hFc HRP
# Method: An ELISA assay was developed to determine the EC₅₀ of exemplary anti-Nectin4 IgG antibodies. Briefly, 384 well plate was immobilized with human Nectin4-HIS tagged recombinant protein at final concentration of 2 ug/mL in 1×PBS in total volume of 25 uL per well. The plate was incubated overnight at 4° C. followed by blocking with 80 uL of superblock per well for 1 hour. Titration of purified anti-Nectin4 IgG starting at 200 nM 2-fold serial dilution, 25 uL was added to human Nectin4 immobilized wells and incubated for 1 hour with shaking. The Nectin4 binding was detected by adding 25 uL of anti-hFc HRP diluted at 1:5000 in 1×PBST. In between each step, the plate was washed 3 times with 1×PBST in a plate washer. The plate was then developed with 20 ul of TMB substrate for 5 mins and stopped by adding 20 ul of 2N sulfuric acid. The plate was read at OD450 nm Biotek plate reader and then plotted in Prism 8.1 software.
# [2] = biological target: T2, full-length human Nectin4 with …; experiment: flow cytometry, IgG on Nectin4/CHO cells, anti-hFc Alexa fluor 647
# Method: 200 nM of purified anti-Nectin4 IgG antibodies were diluted in full medium and incubated with Nectin4/CHO and CHO cells in 96 wells plate on ice for 1 hour. Cells were spun down at 1200 rpm for 5 minutes at 4° C. to remove primary antibodies. Cells were then washed once with 200 uL of full medium per well. Samples were detected with anti-hFc Alexa fluor 647 by adding 100 uL of diluted secondary antibody and incubated at 4° C. for 30 minutes in the dark. Samples were spun down at 1200 rpm for 5 minutes at 4° C. and washed twice with 200 uL of 1×PBS per well. Reconstituted samples in 200 uL of 1×PBS and read on Attune NxT cytometer. Analysis was done by Attune NxT software plotting the overlay histogram of […] proteins binding onto both negative and target cell lines.
# [3] = biological target: T1, human Nectin4-HIS tagged recombinant …; experiment: ELISA, coated human Nectin4-HIS, complex titrated, anti-hFc HRP
# Method: ELISA was performed to determine the EC₅₀ of anti-Nectin4/CD3/IL2 protein complexes. Briefly, 384 well plate was immobilized with human Nectin4-HIS tagged recombinant protein at final concentration of 2 ug/mL in 1×PBS in total volume of 25 uL per well. The plate was incubated overnight at 4° C. followed by blocking with 80 uL of superblock per well for 1 hour. […] The Nectin4 binding was detected by adding 25 uL of anti-hFc HRP diluted at 1:10000 in 1×PBST. In between each step, the plate was washed 3 times with […] in a plate washer. The plate was then developed with 20 ul of TMB substrate for 5 mins and stopped by adding 20 ul of 2N sulfuric acid. The plate was read at OD450 nm Biotek plate reader and then plotted in Prism 8.1 software. Similar SPR methods were applied to measure the binding of the protein complexes to Nectin4, CD3E and IL2 receptors.
# [4] = biological target: T3, CD3 on Jurkat cells (UniProt P07766 23-207, limits assumed); experiment: flow cytometry on Jurkat cells
# T3 construct: whole, on cells; the whole CD3/TCR complex stands on the cells; also called Jurkat CD3
# Method: Jurkat cells were plated at 100,000 cells/well in a 96-well plate with 50 μL of full media. Anti-Nectin4/CD3 antibodies were 3-fold serial titrated from 20 nM. 50 μL was added to the cells and incubated for 1 hours at room temperature with shaking. Samples were washed one time with flow buffer. […] Samples were washed once with flow buffer. Samples were stained with 100 uL Zombie Fixable Viability Dyes at 1:800 dilution per well and incubated in dark at room temperature for 30 mins. Samples were spun down at 1300 rpm for 5 minutes and washed once with 200 uL flow buffer. Reconstituted samples in 200 uL of flow buffer and read on Attune NxT cytometer. EC50 values for CD3 binding were calculated using Prism 8.1 software.
# Similar methods of above mentioned were used to measure the binding activities of anti-Nectin4/CD3/IL-2 complexes to CHO/Nectin4 and Jurkat cells, respectively.
# [5] = biological target: T3, CD3 on Jurkat cells; experiment: cell-based or functional assay
# [6] = biological target: T1, human Nectin4-HIS tagged recombinant …; experiment: ELISA, coated Nectin4 HIS tagged protein, bispecific titrated, anti-Human HRP
# Method: An ELISA assay was developed to determine the EC₅₀ of anti-Nectin4/CD3 bispecific antibodies. Briefly, 384 well plate was immobilized with human CD3E or Nectin4 HIS tagged protein at final concentration of 2 ug/mL in 1×PBS in total volume of 25 uL per well. The plate was incubated overnight at 4° C. followed by blocking with 80 uL of superblock per well for 1 hour. Purified anti-Nectin4/CD3 was 3-fold serial titrated from 100 nM. 25 uL was added to human Nectin4/CD3 immobilized wells and incubated for 1 hour with shaking. The CD3E or Nectin4 binding was detected by adding 25 uL of anti-Human HRP diluted at 1:10000 in 1×PBST. In between each step, the plate was washed 3 times with […] in a plate washer. The plate was then developed with 20 ul of TMB substrate for 5 mins and stopped by adding 20 ul of 2N sulfuric acid. The plate was read at OD450 nm Biotek plate reader and then plotted in Prism 8.1 software to calculate EC50.
# [7] = biological target: T2, full-length human Nectin4 with …; experiment: flow cytometry on CHO/Nectin4 cells
# Method: Nectin4/CHO Nectin4 cells were plated at 100,000 cells/well in a 96-well plate in 50 μL of full media. Cells were rested 1 hour at 37° C. Anti-Nectin4/CD3 was 3-fold serial titrated from 50 nM. 50 μL was added to the cells and incubated for 1 hours with shaking. Samples were washed one time with flow buffer. […] Samples were washed once with flow buffer. Samples were stained with 100 uL Zombie Fixable Viability Dyes (1:800 dilution) per well and incubated in dark at room temperature for 30 mins. Samples were spun down at 1200 rpm for 5 minutes and washed once with 200 uL flow buffer. Reconstituted samples in 200 uL of flow buffer and read on Attune NxT cytometer. EC₅₀ values for Nectin4 Binding were determined using Prism software.
# T3 sequence (P07766 23-207 limits assumed): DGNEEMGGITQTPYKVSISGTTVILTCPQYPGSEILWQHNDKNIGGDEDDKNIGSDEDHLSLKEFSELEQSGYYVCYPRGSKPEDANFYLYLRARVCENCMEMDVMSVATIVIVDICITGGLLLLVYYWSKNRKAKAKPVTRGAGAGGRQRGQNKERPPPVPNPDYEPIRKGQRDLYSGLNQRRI
Binder,EC50 [3],EC50 [4],"Jurkat Cell Activation Activity, NFAT reporter EC50 [5]",EC50 [6],EC50 [7],further results
B1,–,–,–,–,–,EC50 [1]: 0.119 nM; EC50 [2]: 0.125 nM
B2,0.016 nM,1.65 nM,0.009 nM,–,–,–
B3,–,–,–,0.025 nM,0.235 nM,–
B4,–,–,–,0.022 nM,0.234 nM,–
B5,0.042 nM,1.04 nM,0.044 nM,–,–,–
